“Also recorded” adds a separate entry of the source.
Legend:
Assay type in all cases: cell-based, human
Sp1 [1] = assay: TranSignal protein/DNA arrays of nuclear lysates; settings: LF1 and LF2
Smad3/4 = assay: EMSA of nuclear lysates with Smad3/4 probe
TGF-β1 = TGF-β1 ELISA of fibroblast supernatants and lysates; settings: 300 ng/ml rhPARC
From the text: Transforming Growth Factor-β ELISA Assays. ELISA kits for TGF-β1 and TGF-β2 were purchased from R&D Systems. ELISA for TGF-β3 was custom developed using a DuoSet ELISA Development System (R&D Systems) following manufacturer's recommendations. […] Recombinant human TGF-β1, TGF-β2, and TGF-β3 from R&D Systems were used in serial dilutions for calibration of the assays. The minimal detection level in these assays was 10-20 pg/ml of TGF-β. Low serum cell culture medium containing 0.5% dialyzed fetal bovine serum had no detectable TGF-β and was used as a negative control in these assays. Each of LF1-LF4 cultures was tested in duplicates for each time point in at least three independent experiments.
Transforming Growth Factor-β1 ELISA Assays. ELISA kits for transforming growth factor (TGF)-β1 were purchased from R&D Systems (Minneapolis, Minn.), and fibroblast culture supernatants and whole cell lysates after 3, 6, 12, 24, 48, and 72 h activation with rhPARC were assayed in duplicates for total TGF-β1, according to the manufacturer's instructions. Low-serum cell culture medium containing 0.5% dialyzed fetal bovine serum had no detectable TGF-β1 and was used as a negative control in these assays.
ELISA kits for TGF-β1, -β2, and -β3 were purchased from R&D Systems and assays performed following manufacturer's recommendations. […] The minimal detection level in these assays was 10-20 pg/ml of TGF-β. […]

Sp1 [2] = assay: EMSA of nuclear lysates with Sp1-specific probe; settings: consensus and collagen α2(I) promoter-specific probes
Protocol: NushifTM kits for EMSA and supershift assays and reagents for preparation of nuclear extracts were purchased from Active Motif (Carlsbad, Calif.); the procedures were performed according to manufacturer's recommendations, including end-labeling of the specific probes with [γ-^32P]ATP. In addition to the [γ-^32P]ATP-labeled Sp1 consensus probe ([NT] ID NO:5), wild-type and mutant ([NT] ID NO:6) oligo competitors, and an Sp1-specific antibody from the kit, an oligonucleotide representing the Sp1-binding region in the α2(I) collagen promoter ([NT] ID NO:7) was used as a probe (after end-labeling with [γ-^32P]ATP) and as a cold competitor. […] Nuclear extracts were adjusted for total protein content to ensure equal loading. Gels were exposed to a Phosphorimager screen and scanned using a Storm Phosphorimager (Molecular Dynamics); band densities were analyzed with ImageQuant software.

[3] = test system: lung and dermal fibroblast lines; assay: CellTiter AQueous 96 fibroblast proliferation assay; settings: for maximum increase in fibroblast proliferation over non-stimulated control: Days 7 and 8, rhPARC 1-3,000 ng/ml
Protocol: Cell Proliferation Assays. For CellTiter AQueous 96 Non-Radioactive Cell Proliferation Assay (Promega, Madison, Wis.), fibroblasts were plated in low-serum medium at 2×10^3 cells/well in 96-well flat-bottom tissue culture plates (Costar) in 0.2-ml cultures and stimulated with increasing concentrations of rhPARC in quadruplicates. Low-serum tissue culture medium alone was the negative control. The Cell-Titer proliferation assay was performed according to the manufacturer's instructions, after the fibroblasts were incubated with test substances for 3-8 d. Data were expressed as mean OD490±SD of quadruplicate cultures and analyzed using one-way ANOVA with post hoc testing.

TGF-β1 mRNA = assay: Real-time PCR for TGF-β mRNA; settings: LF1 and LF4, 300 ng/ml rhPARC
Protocol: Real-time PCR Quantification of Steady-State mRNA Levels. Total RNA was purified from fibroblast cultures using Trizol reagent (Invitrogen, Carlsbad, Calif.) following the manufacturer's recommendations. First-strand cDNA was synthesized in a 20-μl reaction mixture containing 1 μg of total RNA, 50 mM Tris HCl (pH 8.3), 75 mM KCl, 3 mM MgCl2, 0.5 mM of each dNTP, 1 μM of random hexamer primers, and 400 units of Moloney murine leukemia virus RT (Invitrogen). The reaction mixture was incubated at 37° C. for 60 minutes, then heated at 95° C. for 5 minutes. Real-time PCR was performed on a LightCycler system (Roche, Indianapolis, Ind.). The primers, PCR protocol, and product quantification for the internal control 18S ribosomal RNA were exactly as reported previously (Schmittgen T D et al.). All other primers and hybridization probes were designed and prepared by TIB Molbiol (Adelphia, N.J.). […] The following PCR conditions were used: activation at 95° C. for 10 min, followed by 35 cycles of denaturation at 95° C. for 3 s, primer annealing at 50° C. for 5 s, fluorescence readout (F12/F11) at 50° C., and extension at 72° C. for 15 s. Fold difference in gene expression relative to 18S rRNA between treated and untreated cultures was calculated using the 2-ΔΔCT method (Livak K J et al.).

B1: rhPARC: Recombinant human pulmonary and activation-regulated chemokine (CC chemokine CCL18), purchased from R&D Systems and Cell Sciences (protein)
chain: AQVGTNKELCCLVYTSWQIPQKFIVDYSETSPQCPKPGVILLTKRGRQICADPNKKWVQKYISDLKLNA
DNA binding by Sp1 (protein/DNA arrays) (Sp1 [1]): consistently increased
density of the specific Smad3 band relative to the density at time 0 (Smad3/4; LF1, LF2, LF4, rhPARC-stimulated samples): 0.9-1.2 fold
DNA-binding activity of Smad3/4 (EMSA) (Smad3/4; after activation with PARC): No increase; also recorded: but not Smad3/4
maximal increase in production of TGFβ1 by fibroblasts (TGF-β1; 3-72 h, lung and dermal fibroblast lines): 1.3±0.2 fold
total TGF-β1 in culture supernatants after stimulation (TGF-β1; primary lung fibroblast cultures): decreased
DNA binding by Sp1 (EMSA) (Sp1 [2]): three-fold increase; also recorded: activates transcription factor Sp1
maximum increase in fibroblast proliferation over non-stimulated control ([3]; dermal lines): 45-50%
maximum increase in fibroblast proliferation over non-stimulated control ([3]; lung lines): 20-25%
increase in fibroblast proliferation ([3]; summary statement): 25-50%
steady-state levels of TGF-β mRNAs, treated versus control (TGF-β1 mRNA): no difference in TGF-β1 mRNA levels

Reference: patent US20060009452A1, “Therapeutic targeting of PARC/CCL18 and its signaling in pulmonary fibrosis” (priority 2004, published 2006)
